ChEMBL document CHEMBL3526099, “Metabolism of triethylenetetramine and 1,12-diamino-3,6,9-triazadodecane by the spermidine/spermine-N(1)-acetyltransferase and thialysine acetyltransferase” (Drug Metab Dispos, 2013)

Substrate: NCCNCCNCCN
Experiment: not read

B1: Thialysine N-epsilon-acetyltransferase (Homo sapiens) (protein)
chain: MASVRIREAKEGDCGDILRLIRELAEFEKLSDQVKISEEALRADGFGDNPFYHCLVAEILPAPGKLLGPCVVGYGIYYFIYSTWKGRTIYLEDIYVMPEYRGQGIGSKIIKKVAEVALDKGCSQFRLAVLDWNQRAMDLYKALGAQDLTEAEGWHFFCFQGEATRKLAGK
  Km: 2500 µM
  Vmax: 3.96 µmol/min/mg
